Results: CN101663321A
Read-outs that look alike come from different tables or passages of the source. Values belong to the binder of their own block, whether it stands above or below them.

How the values were obtained:
Assay in all cases: dot blot: serial dilutions of hLIGHT spotted on PVDF, probed with 5 μg/ml antibody
[1] = target: soluble FLAG-tagged recombinant hLIGHT (Gly66-Val240 with N-terminal FLAG), native form (human) (UniProt O43557)
[2] = target: denatured soluble hLIGHT (boiled in 2x SDS sample buffer) (human) (UniProt O43557)
[3] = target: denatured soluble hLIGHT (boiled in 2x SDS sample buffer) (human) (UniProt O43557); remark: listed apart in the source

lowest detection limit (dot blot) [1]: 23 ng
lowest detection limit (dot blot) [2]: > 5000 ng
B1: F19 antibody (produced by hybridoma 124F19, ATCC PTA-7819) (antibody, human IgG1, V domains shown)
VH: QVQLQQWGAGLLKPSETLSLTCAVYGGSFSGYNWHWIRQPPGKGLEWIGEITHSGSTNYNPSLKSRVTISVDTSKNQFSLKLSSVTAADTAVYYCVREIAVAGTGYYGMDVWGQGTTVTVSS
VL: AIQLTQSPSSLSASVGDRVTITCRASRGINSAFAWYQQKPGKAPKLLIYDASSLESGVPSRFSGSGSGTDFTLTISSLQPEDFATYYCQQFNSYPLTFGGGTKVEIK

lowest detection limit (dot blot) [3]: 139 ng
lowest detection limit (dot blot) [1]: 3.9 ng
B2: E63 antibody (produced by hybridoma 124E63, ATCC PTA-7818) (antibody, V domains shown)
VH: QVQLQESGPGLVKPSETLSLTCIVSGGSVSSGGYYWSWIRQPPGKGLEWIGYIYYSGSTNYNPSLKSRVTISVDTSKNQFSLKLSSVTAADTAVYYCARWITMFRGVGFDPWGQGTLVTVSS
VL: EIVLTQSPDFQSVTPKEKVTITCRASQSIGSSLHWYQQKPDQSPKLLIKYASQSFSGVPSRFSGSGSGTDFTLTINSLEAEDAAAYYCHQSSSLPLTFGGGTKVEIK
